Data: article PMC6522533 (2019)

Tests used:
Experiment in all cases: GST pull-down, anti-Smad7 immunoblot
[1] = molecular target: T1, GST-β-catenin aa575–683 (Mus musculus (Mouse), UniProt Q02248)
T1 chain: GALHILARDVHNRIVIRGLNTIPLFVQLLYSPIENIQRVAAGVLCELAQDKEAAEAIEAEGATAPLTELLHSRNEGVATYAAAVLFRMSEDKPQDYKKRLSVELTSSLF

[2] = molecular target: T2, GST-β-catenin aa575–696 (Mus musculus (Mouse), UniProt Q02248)
T2 chain: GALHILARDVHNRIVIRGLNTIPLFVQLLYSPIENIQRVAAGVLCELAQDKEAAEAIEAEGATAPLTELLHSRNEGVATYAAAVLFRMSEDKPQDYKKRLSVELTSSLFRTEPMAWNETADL

[3] = molecular target: T3, GST-β-catenin aa422–683 (Mus musculus (Mouse), UniProt Q02248)
T3 chain: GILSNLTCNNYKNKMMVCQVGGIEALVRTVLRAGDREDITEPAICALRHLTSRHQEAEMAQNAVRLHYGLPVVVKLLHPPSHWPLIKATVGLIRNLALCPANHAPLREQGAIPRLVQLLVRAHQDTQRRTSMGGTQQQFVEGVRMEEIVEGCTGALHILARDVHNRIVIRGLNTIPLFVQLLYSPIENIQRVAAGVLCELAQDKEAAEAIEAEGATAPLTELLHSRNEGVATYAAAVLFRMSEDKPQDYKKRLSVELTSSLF

[4] = molecular target: T4, GST-β-catenin aa1–106 (Mus musculus (Mouse), UniProt Q02248)
T4 chain: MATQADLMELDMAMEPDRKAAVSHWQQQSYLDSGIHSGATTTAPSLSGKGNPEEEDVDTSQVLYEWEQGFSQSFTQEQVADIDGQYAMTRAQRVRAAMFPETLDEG

[5] = molecular target: T5, GST-β-catenin aa1–574 (Mus musculus (Mouse), UniProt Q02248)
T5 chain: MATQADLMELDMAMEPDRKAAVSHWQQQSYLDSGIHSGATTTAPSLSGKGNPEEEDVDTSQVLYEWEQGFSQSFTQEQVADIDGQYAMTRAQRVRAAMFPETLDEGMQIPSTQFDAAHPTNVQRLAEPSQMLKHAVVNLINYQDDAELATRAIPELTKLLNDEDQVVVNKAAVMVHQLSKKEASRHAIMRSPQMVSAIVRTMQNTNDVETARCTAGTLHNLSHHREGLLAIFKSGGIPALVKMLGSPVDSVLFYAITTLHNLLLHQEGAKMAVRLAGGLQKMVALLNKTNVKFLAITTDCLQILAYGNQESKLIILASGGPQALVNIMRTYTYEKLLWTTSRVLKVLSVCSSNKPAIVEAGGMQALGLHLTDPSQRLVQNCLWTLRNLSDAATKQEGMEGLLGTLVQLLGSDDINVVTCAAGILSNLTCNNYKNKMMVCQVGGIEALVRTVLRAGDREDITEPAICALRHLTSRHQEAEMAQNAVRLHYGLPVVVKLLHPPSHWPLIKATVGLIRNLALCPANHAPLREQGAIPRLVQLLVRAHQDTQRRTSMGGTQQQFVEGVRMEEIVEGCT

[6] = molecular target: T6, GST-β-catenin aa120–683 (Mus musculus (Mouse), UniProt Q02248)
T6 chain: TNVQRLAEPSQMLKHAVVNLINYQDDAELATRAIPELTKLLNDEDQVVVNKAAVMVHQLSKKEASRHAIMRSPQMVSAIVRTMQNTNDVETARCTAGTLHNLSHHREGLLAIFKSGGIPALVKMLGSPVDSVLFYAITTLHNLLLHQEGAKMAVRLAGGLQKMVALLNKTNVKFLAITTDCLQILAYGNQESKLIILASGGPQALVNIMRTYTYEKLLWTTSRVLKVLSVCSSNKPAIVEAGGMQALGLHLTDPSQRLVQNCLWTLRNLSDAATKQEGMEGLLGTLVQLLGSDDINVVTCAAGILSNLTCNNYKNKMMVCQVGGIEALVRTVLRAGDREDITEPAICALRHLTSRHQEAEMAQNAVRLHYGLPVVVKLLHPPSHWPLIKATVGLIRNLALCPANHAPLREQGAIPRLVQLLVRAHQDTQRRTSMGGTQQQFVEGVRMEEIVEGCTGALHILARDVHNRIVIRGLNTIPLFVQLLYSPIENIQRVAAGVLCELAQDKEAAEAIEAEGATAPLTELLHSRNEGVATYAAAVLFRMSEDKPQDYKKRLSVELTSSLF

B1: Smad7 (GST tag removed by thrombin) (protein)
chain: MFRTKRSALVRRLWRSRAPGGEDEEEGVGGGGGGGELRGEGATDGRAYGAGGGGAGRAGCCLGKAVRGAKGHHHPHPPTSGAGAAGGAEADLKALTHSVLKKLKERQLELLLQAVESRGGTRTACLLLPGRLDCRLGPGAPASAQPAQPPSSYSLPLLLCKVFRWPDLRHSSEVKRLCCCESYGKINPELVCCNPHHLSRLCELESPPPPYSRYPMDFLKPTAGCPDAVPSSAETGGTNYLAPGGLSDSQLLLEPGDRSHWCVVAYWEEKTRVGRLYCVQEPSLDIFYDLPQGNGFCLGQLNSDNKSQLVQKVRSKIGCGIQLTREVDGVWVYNRSSYPIFIKSATLDNPDSRTLLVHKVFPGFSIKAFDYEKAYSLQRPNDHEFMQQPWTGFTVQISFVKGWGQCYTRQFISSCPCWLEVIFNSR
B1: binds [1]; binds [2]; binds [3]. B1: no binding [4]; no binding [5]; binds [6].
